Results from article PMC10858199, “Amyloid-β aggregates activate peripheral monocytes in mild cognitive impairment” (Nature Communications, 2024).

Legend:
[1] = molecular target: synthetic, predominantly monomeric amyloid-β (M-Aβ) (human) (UniProt P05067); assay: SPR; BIAcore 3000, CM-4 chips; monomeric Aβ, aggregated Aβ (100 fmol Aβ42/mm^2) or iC3b amine-coupled; I domains injected at 20-10000 nM in 150 mM NaCl, 1 mM MgCl2, 5.0 mM HEPES (pH 7.4); contact 180 s, dissociation 400 s; two-dimensional distribution of 1:1 interactions fitted with EVILFIT
[2] = molecular target: in vitro-aggregated amyloid-β (A-Aβ) (human) (UniProt P05067); assay: as above

| Kd [1] [µM] | KD, high-affinity class of binding sites [2] [nM] | koff, high-affinity class of binding sites [2] [s⁻¹] | koff, moderate-affinity class of binding sites [2] [s⁻¹] | Substance |
| --- | --- | --- | --- | --- |
| 79 | – | – | – | CR3 I domain, stabilized in the activated conformation (domain or fragment) |
| – | 0.016 | 0.00025 | 5e-05 | CR4 I domain, stabilized in the activated conformation (from UniProt P20702 20-1101) (domain or fragment) |
